Tests used:
[1] = target: T1, PD-L1 at the surface of transduced cells (UniProt Q9NZQ7 19-290, limits assumed); test: cell-based or functional assay
recombinant human BTN3A1 = target: T2, recombinant human BTN3A1 (human, UniProt O00481 30-254); test: SPR
T2 construct: Soluble form of the antigen used in SPR; also called rhBTN3A1; recombinant BTN3A1 protein

recombinant human PD-L1 = target: T3, recombinant human PD-L1 (human, UniProt Q9NZQ7 19-239, limits assumed); test: SPR
T3 construct: Soluble antigen in SPR; also called rhPD-L1

[2] = target: T1, PD-L1 at the surface of transduced cells; test: flow cytometry, CHO-PD-L1 cells
[3] = target: T4, BTN3A1 at the surface of HEK-BTN3A1 cells (human, UniProt O00481 30-513); test: flow cytometry, HEK-BTN3A1 cells
T4 construct: HEK 293T BTN2A/BTN3A KO cells transduced with a BTN3A1 expressing vector
T4 sequence (O00481 30-513 limits assumed): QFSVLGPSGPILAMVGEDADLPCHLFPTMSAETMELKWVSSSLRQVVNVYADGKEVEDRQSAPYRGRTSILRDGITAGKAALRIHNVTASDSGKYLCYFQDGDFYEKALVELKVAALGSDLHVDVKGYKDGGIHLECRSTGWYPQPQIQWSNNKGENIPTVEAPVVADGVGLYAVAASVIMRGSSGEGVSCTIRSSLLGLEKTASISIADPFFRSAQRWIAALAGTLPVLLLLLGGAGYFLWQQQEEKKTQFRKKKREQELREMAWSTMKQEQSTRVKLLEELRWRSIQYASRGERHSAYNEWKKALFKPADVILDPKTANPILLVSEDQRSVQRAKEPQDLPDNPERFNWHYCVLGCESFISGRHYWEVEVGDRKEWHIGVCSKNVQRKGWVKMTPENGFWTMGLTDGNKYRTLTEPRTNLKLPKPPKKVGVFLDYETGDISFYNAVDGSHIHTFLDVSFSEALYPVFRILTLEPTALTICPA

T1 sequence (Q9NZQ7 19-290 limits assumed): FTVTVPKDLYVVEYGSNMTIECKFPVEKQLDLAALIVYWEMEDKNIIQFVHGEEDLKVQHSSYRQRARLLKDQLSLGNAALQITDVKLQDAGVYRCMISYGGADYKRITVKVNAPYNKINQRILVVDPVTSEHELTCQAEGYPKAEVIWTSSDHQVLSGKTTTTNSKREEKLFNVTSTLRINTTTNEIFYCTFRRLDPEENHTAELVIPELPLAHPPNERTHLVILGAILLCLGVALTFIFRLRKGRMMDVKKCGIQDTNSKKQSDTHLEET
T2 sequence (O00481 30-254 limits assumed): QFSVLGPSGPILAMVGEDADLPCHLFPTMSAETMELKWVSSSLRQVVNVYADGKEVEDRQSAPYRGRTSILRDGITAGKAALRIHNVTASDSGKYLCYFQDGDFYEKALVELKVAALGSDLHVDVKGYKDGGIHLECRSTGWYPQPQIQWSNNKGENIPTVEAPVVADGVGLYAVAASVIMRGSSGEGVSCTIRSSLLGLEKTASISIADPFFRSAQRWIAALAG
T3 sequence (Q9NZQ7 19-239 limits assumed): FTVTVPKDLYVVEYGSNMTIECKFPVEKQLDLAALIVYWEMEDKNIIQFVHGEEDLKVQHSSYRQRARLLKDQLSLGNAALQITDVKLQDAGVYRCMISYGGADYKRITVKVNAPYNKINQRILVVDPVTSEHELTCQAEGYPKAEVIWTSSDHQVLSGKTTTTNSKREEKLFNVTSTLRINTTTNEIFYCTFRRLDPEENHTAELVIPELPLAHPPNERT

Jurkat-PD-1 activation at 10 nM [1] | Jurkat-PD-1 activation at 100 nM [1] | Kd (recombinant human BTN3A1) | Kd (recombinant human PD-L1) | MFI at 10 nM [2] | MFI at 100 nM [2] | MFI at 10 nM [3] | MFI at 100 nM [3] | Binder
5 fold-change to medium | 7.9 fold-change to medium | 68 pM | 97 pM | 973000 MFI | 1.28e+06 MFI | 525000 MFI | 1.03e+06 MFI | bsAb035 (bispecific antibody, IgG anti-BTN3A, one scFv anti-PD-L1; not shown: IgG1 CH1-hinge-CH2-CH3) heavy (part 1 of 2): QVQLVQSGAEVKKPGASVKLSCKASGYIFTRYYMYWVKQRPGQGLEWIGEINPNNGGTKFNEKFKNRATLTVDKSISTAYMELSRLRSDDTAVYYCSREDDYDGTPFAMDYWGQGTLVTVSS heavy (part 2 of 2): GGGGSGGGGSGGGGSGGGGSEVQLVESGGGLVQPGGSLRLSCAASGFTFSRYWMSWVRQAPGKGLEWVANIKQDGSEKYYVDSVKGRFTISRDNAKNSLYLQMNSLRAEDTAVYYCAREGGWFGELAFDYWGQGTLVTVSSGGGGSGGGGSGGGGSGGGGSEIVLTQSPGTLSLSPGERATLSCRASQRVSSSYLAWYQQKPGQAPRLLIYDASSRATGIPDRFSGSGSGTDFTLTISRLEPEDFAVYYCQQYGSLPWTFGQGTKVEIK heavy: QVQLVQSGAEVKKPGASVKLSCKASGYIFTRYYMYWVKQRPGQGLEWIGEINPNNGGTKFNEKFKNRATLTVDKSISTAYMELSRLRSDDTAVYYCSREDDYDGTPFAMDYWGQGTLVTVSS light: not shown
6 fold-change to medium | 7.5 fold-change to medium | 65 pM | 66 pM | 1.04e+06 MFI | 1.25e+06 MFI | 634000 MFI | 1.23e+06 MFI | bsAb040 (bispecific antibody, IgG anti-BTN3A, one scFv anti-PD-L1; not shown: IgG1 CH1-hinge-CH2-CH3) heavy (part 1 of 2): QVQLVQSGAEVKKPGASVKLSCKASGYIFTRYYMYWVKQRPGQGLEWIGEINPNNGGTKFNEKFKNRATLTVDKSISTAYMELSRLRSDDTAVYYCSREDDYDGTPFAMDYWGQGTLVTVSS heavy (part 2 of 2): GGGGSGGGGSGGGGSGGGGSEIVLTQSPGTLSLSPGERATLSCRASQRVSSSYLAWYQQKPGQAPRLLIYDASSRATGIPDRFSGSGSGTDFTLTISRLEPEDFAVYYCQQYGSLPWTFGQGTKVEIKGGGGSGGGGSGGGGSGGGGSEVQLVESGGGLVQPGGSLRLSCAASGFTFSRYWMSWVRQAPGKGLEWVANIKQDGSEKYYVDSVKGRFTISRDNAKNSLYLQMNSLRAEDTAVYYCAREGGWFGELAFDYWGQGTLVTVSS heavy: QVQLVQSGAEVKKPGASVKLSCKASGYIFTRYYMYWVKQRPGQGLEWIGEINPNNGGTKFNEKFKNRATLTVDKSISTAYMELSRLRSDDTAVYYCSREDDYDGTPFAMDYWGQGTLVTVSS light: not shown
5.8 fold-change to medium | 7.4 fold-change to medium | 76 pM | 108 pM | 820000 MFI | 984000 MFI | 344000 MFI | 862000 MFI | bsAb055 (bispecific antibody, one Fab arm anti-BTN3A, one scFv anti-PD-L1; not shown: CH2-CH3 (Fc); IgG1 CH1-hinge-CH2-CH3) heavy 1: GGGGSGGGGSGGGGSGGGGSEVQLVESGGGLVQPGGSLRLSCAASGFTFSRYWMSWVRQAPGKGLEWVANIKQDGSEKYYVDSVKGRFTISRDNAKNSLYLQMNSLRAEDTAVYYCAREGGWFGELAFDYWGQGTLVTVSSGGGGSGGGGSGGGGSGGGGSEIVLTQSPGTLSLSPGERATLSCRASQRVSSSYLAWYQQKPGQAPRLLIYDASSRATGIPDRFSGSGSGTDFTLTISRLEPEDFAVYYCQQYGSLPWTFGQGTKVEIK heavy 2: QVQLVQSGAEVKKPGASVKLSCKASGYIFTRYYMYWVKQRPGQGLEWIGEINPNNGGTKFNEKFKNRATLTVDKSISTAYMELSRLRSDDTAVYYCSREDDYDGTPFAMDYWGQGTLVTVSS light: not shown

From US20260265379A1 (IMCHECK THERAPEUTICS, published 2026)
